Source: publication PMC3710971 (Molecular Cell, 2013)

Tests used:
[1] = target: HDAC1 (full-length, untagged) (UniProt Q13547 1-482); test: crystal structure
crystal structure = target: the molecule itself; test: crystal structure

Sequence of HDAC1 (full-length, untagged) (Q13547 whole entry): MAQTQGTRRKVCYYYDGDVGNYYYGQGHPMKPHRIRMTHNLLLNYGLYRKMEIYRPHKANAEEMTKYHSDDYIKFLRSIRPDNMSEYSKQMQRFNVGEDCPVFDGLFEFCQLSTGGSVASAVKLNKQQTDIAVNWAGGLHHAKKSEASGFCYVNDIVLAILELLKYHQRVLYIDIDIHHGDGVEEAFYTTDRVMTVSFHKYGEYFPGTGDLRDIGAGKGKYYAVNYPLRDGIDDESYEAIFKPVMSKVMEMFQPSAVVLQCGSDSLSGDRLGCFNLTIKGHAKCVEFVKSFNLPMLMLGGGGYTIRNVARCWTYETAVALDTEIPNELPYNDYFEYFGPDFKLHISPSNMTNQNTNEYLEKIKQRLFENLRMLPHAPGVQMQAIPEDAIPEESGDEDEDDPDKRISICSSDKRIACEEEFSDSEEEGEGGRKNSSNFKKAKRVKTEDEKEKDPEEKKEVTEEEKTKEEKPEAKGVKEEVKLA

B1: ELM2-SANT domain of MTA1 (residues 162-335) (domain or fragment, UniProt Q13330 162-335, looked up)
chain: ADKGEIRVGNRYQADITDLLKEGEEDGRDQSRLETQVWEAHNPLTDKQIDQFLVVARSVGTFARALDCSSSVRQPSLHMSAAAASRDITLFHAMDTLHKNIYDISKAISALVPQGGPVLCRDEMEEWSASEANLFEEALEKYGKDFTDIQQDFLPWKSLTSIIEYYYMWKTTDR
[1]
  binding result: binds
Crystal structure
  binding result: binds
